Reference: US20090170219, “Nucleic acid capable of binding to immunoglobulin G and use thereof” (published 2009)

B1: SEQ ID NO:17-2 (23F2) (mixed)
RNA: GGAGGUGCUCCGAAAGGAACUCCAAAAAAAAAAAAAAAA
modifications: deoxy G1 G2 G12-A15 C22 C23 and A16 tail; 2'-F U6 C8 U9 C10 C11 C20 U21; rest 2'-OH
B2: SEQ ID NO:17-4 (23F10) (mixed)
RNA: B1 RNA
modifications: deoxy G1 G2 C11 G12-A15 C22 C23 and A16 tail; 2'-F U6 C8 U9 C10 C20 U21; rest 2'-OH
B3: SEQ ID NO:17-5 (23F11) (mixed)
RNA: B1 RNA
modifications: deoxy G1 G2 G12-G17 C22 C23 and A16 tail; 2'-F U6 C8 U9 C10 C11 C20 U21; rest 2'-OH
B4: SEQ ID NO:17-6 (23F12) (mixed)
RNA: B1 RNA
modifications: deoxy G1 G2 G7 G12-A15 C22 C23 and A16 tail; 2'-F U6 C8 U9 C10 C11 C20 U21; rest 2'-OH
B5: SEQ ID NO:17-8 (23F25) (mixed)
RNA: B1 RNA
modifications: 2'-OMe G1 G2 G12-A15 C22 C23; 2'-F U6 C8 U9 C10 C11 C20 U21; deoxy A16 tail; rest 2'-OH
B6: SEQ ID NO:11 (ssRNA)
RNA: GGACGAGUUACAGGUGCUCCAUCAACAAAAUGUUACAUGGAACUGUAACGGCCG
modifications: 2'-F at all pyrimidines
B7: SEQ ID NO:10 (ssRNA)
RNA: GGAAUGGACGAGUUACAGGUGCUCCAUCAACAAAAUGUUACAUGGAACUGUAACGGCCGACAU
modifications: 2'-F at all pyrimidines
B8: SEQ ID NO:2 (ssRNA)
RNA: GGGACACAAUGGACGUCAAAGAAGAGGUGCUCUGCGAGCCACGCGGAACUCUAUAACGGCCGACAUGAGAG
modifications: 2'-F at all pyrimidines
B9: SEQ ID NO:3 (ssRNA)
RNA: GGGACACAAUGGACGGCGUAAAAUGGAACCUGGGUUAGAAUAUCGGGGGUGCUCCGUAACGGCCGACAUGAGAG
modifications: 2'-F at all pyrimidines
B10: SEQ ID NO:4 (ssRNA)
RNA: GGGACACAAUGGACGGCCAACGUUAACUGGAACUGUAAAUCAGGUGCUCGAGAUAACGGCCGACAUGAGAG
modifications: 2'-F at all pyrimidines
B11: SEQ ID NO:5 (ssRNA)
RNA: GGGACACAAUGGACGACUACAAGGUGCUCCUUGAAAUGUUAAAUGAGGAACUUGUAACGGCCGACAUGAGAG
modifications: 2'-F at all pyrimidines
B12: SEQ ID NO:6 (ssRNA)
RNA: GGGACACAAUGGACGGCUGGUAAGGUGCUCGGAAUGGAACUCGUCAUUCGGAACUUAACGGCCGACAUGAGAG
modifications: 2'-F at all pyrimidines
B13: SEQ ID NO:7 (ssRNA)
RNA: GGGACACAAUGGACGGGUGUUACAGGUGCUUGAUAAAGGUAGAAAAUCAAACUGUAACGGCCGACAUGAGAG
modifications: 2'-F at all pyrimidines
B14: SEQ ID NO:8 (ssRNA)
RNA: GGGACACAAUGGACGAAAGGUGCUCCAACUAAAUUUGGAACUUUCCACCCAUAAUAACGGCCGACAUGAGAG
modifications: 2'-F at all pyrimidines
B15: SEQ ID NO:9 (ssRNA)
RNA: GGGCCACAGCGAGGUGCUCCACCAUUCACGUGGAACUCGUGGGCAGCCCGUCCCCGCGUGUGGUCGG
modifications: 2'-F at all pyrimidines

Biological target: T1, IgG1 (human, UniProt P01857-1 P01857-1:1-330)
Assay: SPR; parent SEQ 17 ++
Conditions: tags: Calbiochem; chain copies: 2
Description: (§1) Used for the measurements was BIAcore 2000 manufactured by BIAcore. Used as the sensor chip was the SA chip having streptavidin immobilized thereon. Bound thereto was about 1000 RU of 16-residue Poly dT having biotin bound to the 5′ end thereof. The RNA for use as the ligand had 16-residue Poly A added to the 3′ end thereof, and immobilized to the SA chip via a bond between dT and A. The amount immobilized was adjusted to about 1000 RU by injecting 60 μL at a concentration of 0.01 μg/μL. 70 μL of IgG-Fc for analyte (manufactured by Athens Research & Technology), adjusted to 0.6 μM, was injected. The running buffer used had the same components as those of the solution A used in SELEX.
The RNAs were prepared by chemical synthesis (manufactured by Gene Design). Their binding affinities were measured by a surface plasmon resonance method as in Example 1. Used as the IgG was human IgG1 (manufactured by Calbiochem).

T1 sequence (P01857 other isoform, or with tags, fused parts or gaps): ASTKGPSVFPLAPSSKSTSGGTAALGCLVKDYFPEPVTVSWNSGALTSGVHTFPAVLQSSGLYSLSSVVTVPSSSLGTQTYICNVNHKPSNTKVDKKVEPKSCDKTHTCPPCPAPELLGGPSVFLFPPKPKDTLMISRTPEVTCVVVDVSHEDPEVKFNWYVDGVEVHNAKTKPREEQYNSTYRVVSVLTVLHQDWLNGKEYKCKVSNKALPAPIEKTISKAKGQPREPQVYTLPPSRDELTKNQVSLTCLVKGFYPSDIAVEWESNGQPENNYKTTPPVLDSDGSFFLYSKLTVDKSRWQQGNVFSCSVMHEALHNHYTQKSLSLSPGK

Q: Does GGAGGUGCUCCGAAAGGAACUCCAAAAAAAAAAAAAAAA (mixed, as 17-8 with 2'-OMe C11) [SEQ ID NO:17-13 (23F43)] bind?
A: Result: binds

Q: Does GGAGGUGCUCCGAAAGGAACUCCAAAAAAAAAAAAAAAA (mixed, as 17-7 with 2'-OMe U9) [SEQ ID NO:17-14 (23F31)] bind?
A: Result: binds

Q: Does GGAGGUGCUCCGAAAGGAACTCCAAAAAAAAAAAAAAAA (mixed, 2'-F U6 C8 U9 C20; deoxy C10 C11 T21 C22 C23 and A16 tail; rest 2'-OH) [SEQ ID NO:17-1 (23F1)] bind?
A: Result: binds

Q: Does B1 bind?
A: Result: binds

Q: Does B2 bind?
A: Result: binds

Q: Does B3 bind?
A: Result: binds

Q: Does B4 bind?
A: Result: binds

Q: Does B5 bind?
A: Result: binds

Biological target: T1, IgG1
Assay: SPR; solution A
Conditions: tags: Calbiochem; chain copies: 2; label: 3' A16 tail for SPR; 5' biotin for serum pull-down
Description: as §1
The dissociation constant was determined by immobilizing an RNA having 16-residue PolyA added to the 3′ end thereof onto a sensor chip via an A-dT bond, injecting different concentrations of IgG (0.6 μM to 0.05 μM), and performing surface plasmon resonance.
Measurements were performed in the same manner as Example 1 by immobilizing an RNA having 16-residue Poly A added thereto via an A-pT bond, and injecting IgG thereto.

Q: With GGAGGUGCUCUGCGAGCCACGCGGAACUCC (ssRNA, 2'-F at all pyrimidines) [SEQ ID NO:15] as the binder, how does the Kd read?
A: Its Kd is 5 nM.

Same assay, conditions: tags: Calbiochem; chain copies: 2; label: 3' A16 tail for immobilisation

Q: For B6, which Kd is on record?
A: Its Kd is 1 nM.

Q: With GGACAGGUGCUCUGCGGAAACGCGGAACUGUCC (ssRNA, 2'-F at all pyrimidines) [SEQ ID NO:14] as the binder, how does the Kd read?
A: The Kd was 4 nM.

Q: GGACAGGUGCUCCGAAAGGAACUGUCC (ssRNA, 2'-F at all pyrimidines) [SEQ ID NO:16] was tested. Which Kd did it give?
A: Its Kd is 6 nM.

Q: B7 was tested. Which Kd did it give?
A: The Kd was 6 nM.

Same assay, conditions: tags: Calbiochem; chain copies: 2; label: 3' A16 tail for immobilisation; GGUGCU bulge

Q: For B8, which Kd is on record?
A: The Kd was 5 nM.

Q: Which Kd does the source give for B9 here?
A: The Kd was 10 nM.

Q: For B10, which Kd is on record?
A: The Kd was 20 nM.

Q: Which Kd does the source give for B11 here?
A: Its Kd is 30 nM.

Q: Which Kd does the source give for B12 here?
A: The Kd was 1 nM.

Q: For B13, which Kd is on record?
A: The Kd was 0.001 nM.

Q: B14 was tested. Which Kd did it give?
A: Its Kd is 3 nM.

Same assay, conditions: tags: Calbiochem; chain copies: 2; label: 3' A16 tail for immobilisation; GGUGCU bulge (vsfold4)

Q: Which Kd does the source give for B15 here?
A: Its Kd is 20 nM.
